Measurements: PMC12781872
Several values for one entry are separate records, joined by “and”; a condition that tells them apart may be missing. Equal entries are not always repeated.

Molecular target: Dylight488-labelled Mtb RNAP core derivative (β' D359 4-azido-L-phenylalanine) (Mycobacterium tuberculosis) (UniProt P9WGZ1)
Test: FRET or BRET

“TMR-labelled Mtb σ^F used in the FRET competition and titration assays (from UniProt P9WGI3 1-261) (natural protein)” was tested, and the Kd was 21.1 nM and 2.6 nM.
